Values joined by “and” are separate entries in the source; they are usually repeats but may differ in a detail not shown here. Equal values may be shown once.
Columns and labels:
[1] = target: the molecule itself; assay: AUC
[2] = target: W227A-F231A-RECQ1T1 (human, UniProt P46063 49-616, W227A;F231A); assay: EMSA
[3] = target: RECQ1T1 (RECQ1 49-616) (human, UniProt P46063 49-616); assay: EMSA
[4] = target: the molecule itself; assay: AUC; remark: listed apart in the source
[5] = target: the molecule itself; assay: SEC

B1: Full-length RECQ1 (RECQ1^FL) (natural protein, human, UniProt P46063 1-649, looked up)
chain: MASVSALTEELDSITSELHAVEIQIQELTERQQELIQKKKVLTKKIKQCLEDSDAGASNEYDSSPAAWNKEDFPWSGKVKDILQNVFKLEKFRPLQLETINVTMAGKEVFLVMPTGGGKSLCYQLPALCSDGFTLVICPLISLMEDQLMVLKQLGISATMLNASSSKEHVKWVHAEMVNKNSELKLIYVTPEKIAKSKMFMSRLEKAYEARRFTRIAVDEVHCCSQWGHDFRPDYKALGILKRQFPNASLIGLTATATNHVLTDAQKILCIEKCFTFTASFNRPNLYYEVRQKPSNTEDFIEDIVKLINGRYKGQSGIIYCFSQKDSEQVTVSLQNLGIHAGAYHANLEPEDKTTVHRKWSANEIQVVVATVAFGMGIDKPDVRFVIHHSMSKSMENYYQESGRAGRDDMKADCILYYGFGDIFRISSMVVMENVGQQKLYEMVSYCQNISKCRRVLMAQHFDEVWNSEACNKMCDNCCKDSAFERKNITEYCRDLIKILKQAEELNEKLTPLKLIDSWMGKGAAKLRVAGVVAPTLPREDLEKIIAHFLIQQYLKEDYSFTAYATISYLKIGPKANLLNNEAHAITMQVTKSTQNSFRAESSQTCHSEQGDKKMEEKNSGNFQKKAANMLQQSGSKNTGAKKRKIDDA
- stoichiometry N [1]: 4 and 2

B2: Y564A-RECQ1^FL (natural protein, human, UniProt P46063 1-649, looked up)
chain: MASVSALTEELDSITSELHAVEIQIQELTERQQELIQKKKVLTKKIKQCLEDSDAGASNEYDSSPAAWNKEDFPWSGKVKDILQNVFKLEKFRPLQLETINVTMAGKEVFLVMPTGGGKSLCYQLPALCSDGFTLVICPLISLMEDQLMVLKQLGISATMLNASSSKEHVKWVHAEMVNKNSELKLIYVTPEKIAKSKMFMSRLEKAYEARRFTRIAVDEVHCCSQWGHDFRPDYKALGILKRQFPNASLIGLTATATNHVLTDAQKILCIEKCFTFTASFNRPNLYYEVRQKPSNTEDFIEDIVKLINGRYKGQSGIIYCFSQKDSEQVTVSLQNLGIHAGAYHANLEPEDKTTVHRKWSANEIQVVVATVAFGMGIDKPDVRFVIHHSMSKSMENYYQESGRAGRDDMKADCILYYGFGDIFRISSMVVMENVGQQKLYEMVSYCQNISKCRRVLMAQHFDEVWNSEACNKMCDNCCKDSAFERKNITEYCRDLIKILKQAEELNEKLTPLKLIDSWMGKGAAKLRVAGVVAPTLPREDLEKIIAHFLIQQYLKEDYSFTAAATISYLKIGPKANLLNNEAHAITMQVTKSTQNSFRAESSQTCHSEQGDKKMEEKNSGNFQKKAANMLQQSGSKNTGAKKRKIDDA
- stoichiometry N [1]: 2 and 4

B3: Fork 20 duplex (dsDNA)
DNA 1: GAACGAACACATCGGGTACGTTTTTTTTTTTTTTTTTTTTTTTTTTTTTT
DNA 2: TTTTTTTTTTTTTTTTTTTTTTTTTTTTTTCGTACCCGATGTGTTCGTTC
- Kd [2]: 10 ± 2 nM
- Kd [3]: 8 ± 2 nM

B4: Δ8-Y564A-RECQ1^FL (natural protein, human, UniProt P46063 1-649, looked up)
chain: MASVSALTEELDSITSELHAVEIQIQELTERQQELIQKKKVLTKKIKQCLEDSDAGASNEYDSSPAAWNKEDFPWSGKVKDILQNVFKLEKFRPLQLETINVTMAGKEVFLVMPTGGGKSLCYQLPALCSDGFTLVICPLISLMEDQLMVLKQLGISATMLNASSSKEHVKWVHAEMVNKNSELKLIYVTPEKIAKSKMFMSRLEKAYEARRFTRIAVDEVHCCSQWGHDFRPDYKALGILKRQFPNASLIGLTATATNHVLTDAQKILCIEKCFTFTASFNRPNLYYEVRQKPSNTEDFIEDIVKLINGRYKGQSGIIYCFSQKDSEQVTVSLQNLGIHAGAYHANLEPEDKTTVHRKWSANEIQVVVATVAFGMGIDKPDVRFVIHHSMSKSMENYYQESGRAGRDDMKADCILYYGFGDIFRISSMVVMENVGQQKLYEMVSYCQNISKCRRVLMAQHFDEVWNSEACNKMCDNCCKDSAFERKNITEYCRDLIKILKQAEELNEKLTPLKLIDSWMGKGAAKLRVAGVVAPTLPREDLEKIIAHFLIQQYAAGPKANLLNNEAHAITMQVTKSTQNSFRAESSQTCHSEQGDKKMEEKNSGNFQKKAANMLQQSGSKNTGAKKRKIDDA
- stoichiometry N [1]: 2

B5: RECQ1^49-616 (truncated catalytic core of human RECQ1 helicase) (domain or fragment, UniProt P46063 49-616, looked up)
chain: CLEDSDAGASNEYDSSPAAWNKEDFPWSGKVKDILQNVFKLEKFRPLQLETINVTMAGKEVFLVMPTGGGKSLCYQLPALCSDGFTLVICPLISLMEDQLMVLKQLGISATMLNASSSKEHVKWVHAEMVNKNSELKLIYVTPEKIAKSKMFMSRLEKAYEARRFTRIAVDEVHCCSQWGHDFRPDYKALGILKRQFPNASLIGLTATATNHVLTDAQKILCIEKCFTFTASFNRPNLYYEVRQKPSNTEDFIEDIVKLINGRYKGQSGIIYCFSQKDSEQVTVSLQNLGIHAGAYHANLEPEDKTTVHRKWSANEIQVVVATVAFGMGIDKPDVRFVIHHSMSKSMENYYQESGRAGRDDMKADCILYYGFGDIFRISSMVVMENVGQQKLYEMVSYCQNISKCRRVLMAQHFDEVWNSEACNKMCDNCCKDSAFERKNITEYCRDLIKILKQAEELNEKLTPLKLIDSWMGKGAAKLRVAGVVAPTLPREDLEKIIAHFLIQQYLKEDYSFTAYATISYLKIGPKANLLNNEAHAITMQVTKSTQNSFRAESSQTCHSEQGDKKME
- stoichiometry N [4]: 2

B6: Y564A-RECQ1^T1 (domain or fragment, human, UniProt P46063 49-616, looked up)
chain: CLEDSDAGASNEYDSSPAAWNKEDFPWSGKVKDILQNVFKLEKFRPLQLETINVTMAGKEVFLVMPTGGGKSLCYQLPALCSDGFTLVICPLISLMEDQLMVLKQLGISATMLNASSSKEHVKWVHAEMVNKNSELKLIYVTPEKIAKSKMFMSRLEKAYEARRFTRIAVDEVHCCSQWGHDFRPDYKALGILKRQFPNASLIGLTATATNHVLTDAQKILCIEKCFTFTASFNRPNLYYEVRQKPSNTEDFIEDIVKLINGRYKGQSGIIYCFSQKDSEQVTVSLQNLGIHAGAYHANLEPEDKTTVHRKWSANEIQVVVATVAFGMGIDKPDVRFVIHHSMSKSMENYYQESGRAGRDDMKADCILYYGFGDIFRISSMVVMENVGQQKLYEMVSYCQNISKCRRVLMAQHFDEVWNSEACNKMCDNCCKDSAFERKNITEYCRDLIKILKQAEELNEKLTPLKLIDSWMGKGAAKLRVAGVVAPTLPREDLEKIIAHFLIQQYLKEDYSFTAAATISYLKIGPKANLLNNEAHAITMQVTKSTQNSFRAESSQTCHSEQGDKKME
- stoichiometry N [5]: 2

B7: W227A-F231A-RECQ1^T1 (domain or fragment, human, UniProt P46063 49-616, looked up)
chain: CLEDSDAGASNEYDSSPAAWNKEDFPWSGKVKDILQNVFKLEKFRPLQLETINVTMAGKEVFLVMPTGGGKSLCYQLPALCSDGFTLVICPLISLMEDQLMVLKQLGISATMLNASSSKEHVKWVHAEMVNKNSELKLIYVTPEKIAKSKMFMSRLEKAYEARRFTRIAVDEVHCCSQAGHDARPDYKALGILKRQFPNASLIGLTATATNHVLTDAQKILCIEKCFTFTASFNRPNLYYEVRQKPSNTEDFIEDIVKLINGRYKGQSGIIYCFSQKDSEQVTVSLQNLGIHAGAYHANLEPEDKTTVHRKWSANEIQVVVATVAFGMGIDKPDVRFVIHHSMSKSMENYYQESGRAGRDDMKADCILYYGFGDIFRISSMVVMENVGQQKLYEMVSYCQNISKCRRVLMAQHFDEVWNSEACNKMCDNCCKDSAFERKNITEYCRDLIKILKQAEELNEKLTPLKLIDSWMGKGAAKLRVAGVVAPTLPREDLEKIIAHFLIQQYLKEDYSFTAYATISYLKIGPKANLLNNEAHAITMQVTKSTQNSFRAESSQTCHSEQGDKKME
- stoichiometry N [5]: 2
